Changes are numbered by the printed parent chain.
How the values were obtained:
Assay in all cases: fluorescence anisotropy
RecE564 K761A = target: T1, RecE564 K761A (Escherichia coli K12, UniProt P15032 564-866, K761A)
T1 sequence: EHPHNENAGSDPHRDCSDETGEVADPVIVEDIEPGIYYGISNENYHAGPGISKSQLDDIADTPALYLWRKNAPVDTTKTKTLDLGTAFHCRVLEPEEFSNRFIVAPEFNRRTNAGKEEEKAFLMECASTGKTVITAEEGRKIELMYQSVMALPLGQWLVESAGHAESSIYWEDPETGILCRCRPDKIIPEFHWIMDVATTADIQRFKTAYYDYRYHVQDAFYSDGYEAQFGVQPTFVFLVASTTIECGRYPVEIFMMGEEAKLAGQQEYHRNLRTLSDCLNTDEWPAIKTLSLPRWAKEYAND

RecE564 P669A = target: T2, RecE564 P669A (Escherichia coli K12, UniProt P15032 564-866, P669A)
T2 sequence: T1 sequence with P106A, A198K

RecE564 P658L = target: T3, RecE564 P658L (Escherichia coli K12, UniProt P15032 564-866, P658L)
T3 sequence: T1 sequence with P95L, A198K

RecE564 E729A = target: T4, RecE564 E729A (Escherichia coli K12, UniProt P15032 564-866, E729A)
T4 sequence: T1 sequence with E166A, A198K

RecE564 F661A = target: T5, RecE564 F661A (Escherichia coli K12, UniProt P15032 564-866, F661A)
T5 sequence: T1 sequence with F98A, A198K

RecE564 S617A = target: T6, RecE564 S617A (Escherichia coli K12, UniProt P15032 564-866, S617A)
T6 sequence: T1 sequence with S54A, A198K

B1: F25 (dsDNA)
DNA 1: TAGAGCTTAATTGCTGAATCTGGTG
DNA 2: CACCAGATTCAGCAATTAAGCTCTA
RecE564 K761A
  Kd: 130 ± 10 nM
RecE564 P669A
  Kd: 109 ± 8 nM
RecE564 P658L
  Kd: 80 ± 10 nM
RecE564 E729A
  Kd: 57 ± 3 nM
RecE564 F661A
  Kd: 118 ± 8 nM
RecE564 S617A
  Kd: 150 ± 20 nM

— PMC2688778 (Structure (London, England : 1993), 2009)
